Biological target: T1, CD20 (human, UniProt P11836 1-297)
T1 construct: whole, on cells; also called CD20 on Ramos cells
T1 sequence (looked up): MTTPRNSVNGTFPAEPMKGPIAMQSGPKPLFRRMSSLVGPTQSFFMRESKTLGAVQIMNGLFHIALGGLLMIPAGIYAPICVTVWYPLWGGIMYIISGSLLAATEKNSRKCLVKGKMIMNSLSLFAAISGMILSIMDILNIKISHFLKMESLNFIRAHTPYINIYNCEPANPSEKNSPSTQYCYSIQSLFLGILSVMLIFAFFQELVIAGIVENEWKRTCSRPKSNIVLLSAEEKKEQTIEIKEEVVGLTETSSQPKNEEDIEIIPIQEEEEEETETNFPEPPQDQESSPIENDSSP
Assay: saturation binding of radiolabeled mAb to Ramos cells (10^7 cells), nonlinear regression; avidity

B1: B9E9 mAb (murine anti-CD20 antibody B9E9) (antibody, V domains shown)
VH: QVQLVQSGAELVKPGASVKMSCKASGYTFTSYNMHWVKQTPGQGLEWIGAIYPGNGDTSYNQKFKGKATLTADKSSSTAYMQLSSLTSEDSAVYYCARAQLRPNYWYFDVWGAGTTVTVSS
VL: DIVLSQSPAILSASPGEKVTMTCRASSSVSYMHWYQQKPGSSPKPWIYATSNLASGVPARFSGSGSGTSYSLTISRVEAEDAATYYCQQWISNPPTFGAGTKLELK
Ka: 1.02e+08 M⁻¹
Kd: 9.75 nM
